Laboratory results as given in the DeepSol protein solubility set.

Assay: soluble on expression in E. coli; label from the status in PepcDB or PDB records

Sequence	soluble on expression in E. coli
MGSDKIHHHHHHMSIPQQTDALDQAPSTAGCRVPYRVFTDRQYYDREQENIFKGNCWSFVGLEAEVPQAGDFKSTFVGETPVILTRDSDGSLHVVVNRCAHRGALVCREMRGNRASLECVYHQWAYDLKGNLIGVPFRRGLKGQGGMPGDFDMSQHNLRQLRTESVGGLVFASFSETVESCRDFLGPIVVEQIERIMCKPITVLGDQRQRIRGNWKLYAENTRDPYHASLLHLFHNTFGLYRSTQTGKALMDANKRHSLLYSIAASNDDAADKQAYGDSRTFDTEFKLQDMSLLKGRQEFADNVTLVILAVYPNLVLQQIQNTLAVRQTVTYGPDEFELVWTHFGYQDDDAEMQAIRLKQANLIGPAGLISMEDGEAVEIVQNAIVGEASATSYIAMGGGRAEDADHLVTEGAIIGFWDNYREMVGFEVEPT	not soluble
MPRPSAGSHHNDKLHFKKGDTVIVLSGKHKGQTGKVLLALPRDQKVVVEGVNVITKNVKPSMTNPQGGQEQRELALHASKVALVDPETGKATRVRKQIVDGKKVRVAVASGKTID	soluble
MGSDKIHHHHHHMTDQTRFFDEMTGGAPQARGPYQPYDAWFQGEDLDEIRKKSAEAEGFFRRTGITFNVYGQTEADERLIPFDVVPRIISGREWTRLTRGIEQRVRALNAFLYDIYHRQEILRAGRVPRELIDGNEAFLPQMMGVAPPGGIYTHIVGTDLVRTGEDEFFVLEDNARTPSGVSYMLENRETMLQMFPDLFSRIKVRPVQNYPANLRRSLAACAPNACTGECTVAVLTPGIHNSAYFEHAFLADQMGVELVEGHDLRVKDGRIAMRTTEGYKAIDVLYRRVDDDFLDPLNFNPDSMLGVPGIMDVYRAGGITIANAPGTGISDDKALYSYMPDIIEFYTGEKALLQNVPTHRCSEPEALKYVLDNLAELVVKEVHGSGGYGMLVGPAASKTEIEAFRKKLEANPSNYIAQPTLALSTCPILTEAGLAPRHVDLRPFVLMAPNKTTITPGGLTRVALAEGSLVVNSSQGGGTKDTWVLED	not soluble
ASTLGFKARIHMSHDATDWKINKLLQNGVEVKIYDDNFSNAVAAARVSSQRDPYSYFIDDEGSKLLFAGYATAGERVKKQLSKMQIEVSKEHPLVVYLPAGVGGSPSGVAFGLKLQFADAVIPIFVEPTHMPSVLLGMASGLNHDISVYDIGIDGKTAADGLAVGRPSMIAGKYMKDKLFGIATVSDSDMFAYQGMLKKLENIEVEPSAAVGIRGLIQSKEISEIPDSATHMVWATGGSMVPKNTMHKYEDKAVRIFNTWKS	not soluble
SDRAMMNAFKEITTMADRINLPRNIVDRTNNLFKQVYEQKSLKGRANDAIASACLYIACRQEGVPRTFKEICAVSRISKKEIGRCFKLILKALETSVDLITTGDFMSRFCSNLCLPKQVQMAATHIARKAVELDLVPGRSPISVAAAAIYMASQASAEKRTQKEIGDIAGVADVTIRQSYRLIYPRAPDLFPTDFKFDTPVDKLPQL	soluble
MSLELDAVSRSYKRWAPIYDFSFGKVSESPRRRTAAHVNARGGRVLEVGVGTGLSLPLYSHRVAVTGIDFSHEMLARAREKVEEMGLEPVKELRQMDARELDFPDETFDTVVAMFLVSVVPEPERVVSEMARVCRKGGEVVIVNHFARDKGPLAAVEKALARFENTLGWHSDFAIERVTADPRLEVVEQTPMSPGGLFTFLRFQRREGHHHHHH	soluble
MKVGIVGGGIVGLFTAYYLAKEGIKDIIIYEKGFLGAGSIHAAGLIEPYRFDKINTLSMIKKMLKYKMNGSTDIKEVDKLWLVELIKNLEKDPPGEAWDTMREMAKFSLSEYKRIAEEKNDFDYHEDGLLELYYNSKEFESGIEDEKKSPFNPKFEIEEIKGFAGGLFFPELSRISTEKFIDRISREIVSNIKVKNEEVIKVSDEGYIDGEKYDLVVVAAGIWSRILKIPLTAFKGYGYRVKGVSKLNRAAVIVDYGLAISPLSDHIKITGGFDADFSIDSKRAEDFLKKAEELVDIQYIIDLNMGFRPCSPDGFPVIGKRNNLVLVTGACRLGWSYGPAMGRYATDLALGKAKDLGYISRYYHELEHHHHHH	not soluble
MCMMSHNKAFFLSLQHAAVSGVAVCLSVRRGAGSVPAGNRGKKTIITEYRITGTRALARCPTKPVTSMWNSSWTSRLEHHHHHH	not soluble
MSLRAVRLHAKWDPRPEFKLGPKDIEGKLTWLGSKVWRYPEVRVEEVPEPRIEKPTEIIIKVKACGICGSDVHMAQTDEEGYILYPGLTGFPVTLGHEFSGVVVEAGPEAINRRTNKRFEIGEPVCAEEMLWCGHCRPCAEGFPNHCENLNELGFNVDGAFAEYVKVDAKYAWSLRELEGVYEGDRLFLAGSLVEPTSVAYNAVIVRGGGIRPGDNVVILGGGPIGLAAVAILKHAGASKVILSEPSEVRRNLAKELGADHVIDPTKENFVEAVLDYTNGLGAKLFLEATGVPQLVWPQIEEVIWRARGINATVAIVARADAKIPLTGEVFQVRRAQIVGSQGHSGHGTFPRVISLMASGMDMTKIISKTVSMEEIPEYIKRLQTDKSLVKVTMLNEGHHHHHH	soluble
MAHHHHHHMGLYKSIYFVDGGCCAVKFNAITGLKNRTYGEGANFAIPFLETPVVFDIRNKPTEVLTATGSRDLQTVNLAVRVLYQPHVSALPDIYRNVGMEYAETVLPSLVNEIIRAVIAQFNASDLLVKRPEVSNRIGVMLAERAKRFHIDITDVSITQMSFGKEYTSAVEAKQVAQQMAERAKWRVEQAEQEKEGAILLAKGEAEAAKLIGMAVQKNPAFITLRSLEASRTIADLMRQKGSGSFYIDSDTLSLNTQTIGH	not soluble
NKVNDESVEYFGQRNEFRQASDFMEERISGMTNISIAIKTNESQGIAAPDFLNTIGEFSSWLRDQPETDHVATLADVYKRLNKNMHGDDEAYYLLPQERELAAQYLLLYEMSLPYGLDLNNQINVDKSSIKMVLTVANLGSVELVDLENRIYQWFAEHAPQYQVVASSPSLMFAHIGETN	not soluble
MAHHHHHHMLRRVPLRLARRKHGQTAWSPNNTSSGAAPTNGITAQEALQIAYRPMPPANTVEYEEDFGPNMMIHREFVSSRHRTRMASDISALAYSDVELARARQQLAGVMNRERRGALVGSGGEAGDRVLFNSDVDETTREVKSARFLFNEQRMRFCDRFQTFFRERIERWAAGDAGAGEDDHPYFSLMEACAVLHGCDTVDAREVYYRRFLGLDLDTLEAEEAALRARAADAAEVGARLTRGEAGAGGGALVAAAAGGAGGAGSATDVVQDIIDALPPLFPQPAAAEVGEASEAVADAPPARARAAGAGELPPATAAAPAHLAEDAAPLYKAYLAHARGESPVGSYDVTTLGAHAAHAERRRWRSLMDKIAAEDYHELTAAELEDAHVLNGQLHTVKFFDLKVGDTVREIVQLLERETGSSASGDRDVPVEMSPTHPERRV	not soluble
PAMADTIKLRIIETTDIHTNVMDYDYYKDQPSQQIGLSRAATLVKQAKSEVENSVLVDNGDLIQGSPMGDYMAAKGIQTGEVHPVYKAMNQLHYDVGNIGNHEFNYGLDFLQNTLAGANFPYINANVFDKKTGEHYFQPYLIKTHSFKDTDGEVHQVKVGYIGFVPPQIMVWDKKNLEGNVVAKDIKETAEKLIPQMKKEGADIIVAIPHSGVSTDPYKLGAENSVYYLTQVKGIDAIAFGHSHAVFPGKGFENLQGVDNNKGTINGVTAVMPGRWGSHVGVMDLVIEQKDGQWQVVEGQSEARPIFDKAAKKSLAEADQCIIRALEDDHKGTREFVNQ	not soluble
MSTQNYPATGRLAEPEYGTLLVKNVKIYGEGEPVNVLITDGVITDTHAGDVKADREVDGQGGVLLPGLVDIHVHLREPGREDTETIATGSAAAAKGGFTAVFTMANTMPVMDQPIIAESVWHKGQDIGLCDVHPVGSITKGLEGKEITEFGMMAHSQAKVRMFSDDGKCVDNPLIMRRAVEYARGTDVLLAQHCEDPRLTDGAVAHEGAMAAKLGLGGWPRVAEESIVARDAILARDYGGRMHICHASTQGTVELVKWAKEHEIPLTAEVTPHHLLLTDERLATYDGVNRVNPPLRENSDILALRDALLNGTIDCVATDHAPHGSEDKCCEFEHAKPGMLGLETSLAVVAAVFVETGLADWRFVAKVMSERPAEIVKLPGHGRPIAVGEPANLTIVDPGAKWTASGEKMASKATNTPYEGMEFNARVTTTILRGRLTCVDGEPTQARA	not soluble
